Laboratory results reported in patent US20230137351A1.

Target: human beta-Klotho/FGFR1c complex on stable AM-1D cells (human) (UniProt Q86Z14)
Chain of UniProt Q86Z14 (Q86Z14 whole entry, chain 1 of 2): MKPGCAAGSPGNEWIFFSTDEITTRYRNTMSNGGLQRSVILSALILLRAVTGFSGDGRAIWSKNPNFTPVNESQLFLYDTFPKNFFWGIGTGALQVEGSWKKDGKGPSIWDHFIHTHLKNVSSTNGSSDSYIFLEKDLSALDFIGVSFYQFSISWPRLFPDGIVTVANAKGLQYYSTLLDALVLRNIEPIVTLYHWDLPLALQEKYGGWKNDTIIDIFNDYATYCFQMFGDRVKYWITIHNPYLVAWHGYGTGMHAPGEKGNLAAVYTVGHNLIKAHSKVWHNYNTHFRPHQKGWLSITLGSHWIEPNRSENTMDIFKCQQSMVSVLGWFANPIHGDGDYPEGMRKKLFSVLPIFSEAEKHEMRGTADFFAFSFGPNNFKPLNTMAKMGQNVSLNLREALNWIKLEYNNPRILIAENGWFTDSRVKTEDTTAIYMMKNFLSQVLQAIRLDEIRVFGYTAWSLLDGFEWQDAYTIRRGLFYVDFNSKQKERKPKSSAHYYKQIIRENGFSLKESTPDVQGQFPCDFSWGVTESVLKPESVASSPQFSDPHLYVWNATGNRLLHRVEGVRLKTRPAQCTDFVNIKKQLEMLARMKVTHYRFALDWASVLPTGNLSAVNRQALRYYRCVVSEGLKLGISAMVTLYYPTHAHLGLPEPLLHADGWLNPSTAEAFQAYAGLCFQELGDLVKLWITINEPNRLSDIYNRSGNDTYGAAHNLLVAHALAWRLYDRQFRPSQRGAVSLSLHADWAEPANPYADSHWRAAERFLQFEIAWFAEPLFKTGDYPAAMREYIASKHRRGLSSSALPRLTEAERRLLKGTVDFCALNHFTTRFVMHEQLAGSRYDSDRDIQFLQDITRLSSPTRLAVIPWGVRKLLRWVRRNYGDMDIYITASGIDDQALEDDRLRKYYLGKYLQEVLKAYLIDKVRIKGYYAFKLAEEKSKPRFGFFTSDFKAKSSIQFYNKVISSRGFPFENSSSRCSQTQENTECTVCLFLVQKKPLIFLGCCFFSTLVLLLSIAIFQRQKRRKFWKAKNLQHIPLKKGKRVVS
Chain of UniProt Q86Z14 (P11362 22-822, chain 2 of 2, further chain): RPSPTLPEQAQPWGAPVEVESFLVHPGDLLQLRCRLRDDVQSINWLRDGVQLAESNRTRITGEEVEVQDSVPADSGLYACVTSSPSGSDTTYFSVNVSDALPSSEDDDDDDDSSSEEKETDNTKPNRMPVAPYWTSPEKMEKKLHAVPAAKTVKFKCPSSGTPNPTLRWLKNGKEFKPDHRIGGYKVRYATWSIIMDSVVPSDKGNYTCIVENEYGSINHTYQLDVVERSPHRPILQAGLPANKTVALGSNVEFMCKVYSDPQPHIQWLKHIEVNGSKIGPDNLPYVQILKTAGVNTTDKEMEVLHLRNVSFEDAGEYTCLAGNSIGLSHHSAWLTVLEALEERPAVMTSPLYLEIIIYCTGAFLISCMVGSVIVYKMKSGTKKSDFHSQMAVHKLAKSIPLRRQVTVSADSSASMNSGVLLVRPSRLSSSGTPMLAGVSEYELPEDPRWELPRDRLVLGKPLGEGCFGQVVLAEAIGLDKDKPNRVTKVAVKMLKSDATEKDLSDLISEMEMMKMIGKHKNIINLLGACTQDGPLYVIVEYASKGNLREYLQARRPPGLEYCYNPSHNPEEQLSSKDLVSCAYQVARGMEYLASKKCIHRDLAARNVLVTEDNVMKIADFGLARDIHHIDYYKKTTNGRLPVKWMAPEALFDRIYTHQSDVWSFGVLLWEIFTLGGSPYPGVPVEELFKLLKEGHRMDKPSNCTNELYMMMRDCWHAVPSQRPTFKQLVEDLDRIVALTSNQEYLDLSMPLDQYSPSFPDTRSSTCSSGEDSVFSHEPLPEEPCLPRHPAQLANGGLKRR

Substance: FGF21 (from UniProt Q9NSA1 29-209) (ligand)
- adipocyte pERK assay: EC50 (read off the curve) [lower row]: 0.7 nM
